Assay results published in the supplement of paper PMC9170038.

System: MS2 coat protein
Experiment: apparent KD of MS2 coat protein; designed switch direction (-1 OFF switch, 1 ON switch): -1; higher = weaker reporter binding
Procedure, shortened: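 The reported apparent KD is a per-design median over clusters, from curve fits of normalised cluster fluorescence. Protein titrations used SNAP-549-labelled MS2 coat protein, doubled from 0.7 or 1.5 nM to 3 µM, in Tris-HCl pH 7.5 buffer with KCl, MgCl2, BSA, DTT, tRNA and Tween-20, with no input, 200 uM small-molecule ligand, or an oligonucleotide input. The RNA switches were transcribed on Illumina chips by stalled E. coli RNA polymerase.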

[1] = Eterna round: R95, input ligand: microRNA oligo, concentration not stated
[2] = Eterna round: R95, input ligand: FMN 200 uM
[3] = Eterna round: R95, input ligand: none
[4] = input ligand: microRNA oligo, concentration not stated

Sequence | apparent KD of MS2 coat protein (input ligand: FMN 200 uM) [nM] | apparent KD of MS2 coat protein (input ligand: none) [nM] | apparent KD of MS2 coat protein [1] [nM] | apparent KD of MS2 coat protein [2] [nM] | apparent KD of MS2 coat protein [3] [nM] | apparent KD of MS2 coat protein [4] [nM]
AUCGUGUGAGGAUAUCGAUGUUGGACGUCUAGGUCUGUGCGCGAGAAGGCACAUGAGGAUCACCCAUGUAAUGG [jl-ex4-4.26 ViennaUCT mod] (Eterna round: R97, puzzle: Exclusion 4) | 137 | 347 |  |  |  | 
AUCUUGUAAGGAUAUCUUACAAGUGACUUCGGUCACAGUUAAGAGAAGGUACAUGAGGAUCACCCAUGUAUAAC [Ex4-3: 38] (puzzle: Exclusion 4) |  |  | 23.8 |  |  | 
AUGAGACAUGAGGAUCACCCAUGUGAGGAUAUGUAUGGAUGGUGGAAAGAAUGAGAGAACAGAAGGCACGUAGA [JR_Exclu1_Sub062] (puzzle: Exclusion 1) |  |  | 109 | 122 | 231 | 
AUGAGGUUAGGAUAUACAUGAGGAUCACCCAUGUUGAAAGGUUAGAUAGGAGAAGAUAGUAGAAGGAACAAAGA [JR_Exclu3_Sub053] (puzzle: Exclusion 3) |  |  | 37.2 | 31.8 | 43.1 | 
AUGAGGUUAGGAUAUACAUGAGGAUCACCCAUGUUGGAGAAGGAAGUGUAAGUAGCGAGUAGAAGGAACGGAGC [JR_Exclu3_Sub060] (puzzle: Exclusion 3) |  |  | 51.1 | 37.5 | 48.4 | 
AUGCCACAUGAGGAUCACCCAUGUGAGGAUAUGGCCUGUUUGGCGUGUGCUGGCUCUGUCAGAAGGCGCGUGGG [salish99_ex1_r4_036] (Eterna round: R97, puzzle: Exclusion 1) | 33.9 | 25.7 |  |  |  | 
AUGCCGAGUGUAGGAUAUGGCCCGGAACCACGGCCAGAAGGACAUGAGGAUCACCCAUGUGGCCCGAUAUACACGGUAUCAGAC [Eternabot solution 1] (Eterna round: R96, puzzle: Exclusion NG 1) | 44.7 | 24.4 |  |  |  | 17.7
AUGGGUCCUCACGGAGCUACAUGAGGAUCACCCAUGUGUAUUGAGGAUAUCCACUGCCGAGGGCUGGAGAAGGCAGUGUACUGU [Ex NG3 #92] (Eterna round: R96, puzzle: Exclusion NG 3) | 124 | 108 |  |  |  | 89.3
AUGGUACAUGAGGAUCACCCAUGUUAGGAUAUCGCGUGACCUAAAACUAAGAGACACACGAGAAGGGACGACAU (puzzle: Exclusion 1) |  |  | 77.3 |  |  | 
AUGGUGUCAGGAUAUCUCAAAGCACAGAAUGAGCGGCUACGGGAGAAGGGACAUGAGGAUCACCCAUGUACUCU [EX4 B.29] (Eterna round: R97, puzzle: Exclusion 4) | 19.9 | 18.6 |  |  |  | 
AUGUCGGCAGGAUAUACAUGAGGAUCACCCAUGUAAAUUUUUCGUUUAACUUGAAUGUGUAGAAGGGCCAUGUA [Ex3 #69] (Eterna round: R97, puzzle: Exclusion 3) | 29.1 | 28.9 |  |  |  | 
AUGUGGGUAUGAAGGUGUAGAUAGAGCGUACGUUAUGGAACAUGAGGAUCACCCAUGUAGCUUUUUGCUCGUCUUAU [JR_SV3TOV2_Sub034] (puzzle: Sensor v3, turn-off variant 2) |  |  | 40.9 | 36.8 | 40.4 | 
AUGUUGUCAGGAUAUCUUACAUAACAAUCGUUGUUACCAUUGGAGAAGGGACAUGAGGAUCACCCAUGUUAACC [tap-tap-tappy45] (Eterna round: R97, puzzle: Exclusion 4) | 23.9 | 21.5 |  |  |  | 
AUUAAACAUGUAGGAUAUGCAUAGCAAAGCUAUGCAGAAGGACAUGAGGAUCACCCAUGUAAAAGCGUCUGAGUACAGAUGCAA [Mat - Exclusion NG 1 - Mod of JL - D89] (Eterna round: R96, puzzle: Exclusion NG 1) | 402 | 57 |  |  |  | 53.2
AUUAAAGACCGAGGAUAUCGAGGAAAUACACUGCGAGAAGGCGGGUACUCGGACGAUUCGACAUGAGGAUCACCCAUGUGCACA [Tixequ] (Eterna round: R96, puzzle: Exclusion NG 1) | 26.7 | 25.3 |  |  |  | 18.9
AUUAACUUAGGAUAUACAUGAGGAUCACCCAUGUCCCACCCGUUACCCAUGACCAUAUGUAGAAGGAAGAAGAA [Exy#9] (Eterna round: R97, puzzle: Exclusion 3) | 32.2 | 39.5 |  |  |  | 
AUUAGUAAUAAGGAUAUCACUAGCCUCGGCUAGUGAGAAGGUAUUACAUGAGGAUCACCCAUGUGAUUAAUUAA [E6/5-A2] (Eterna round: R97, puzzle: Exclusion 6) | 463 | 79.7 |  |  |  | 
AUUAGUAAUAAGGAUAUCACUAGCUUCGGCUAGUGAGAAGGUAUUACAUGAGGAUCACCCAUGUGAUUAAUUAA [E6/5-A1] (Eterna round: R97, puzzle: Exclusion 6) | 446 | 75.3 |  |  |  | 

Sequence | apparent KD of MS2 coat protein (input ligand: FMN 200 uM) [nM] | apparent KD of MS2 coat protein (input ligand: none) [nM] | apparent KD of MS2 coat protein [1] [nM] | apparent KD of MS2 coat protein [2] [nM] | apparent KD of MS2 coat protein [3] [nM] | apparent KD of MS2 coat protein [4] [nM]
AUUAUAAGGAGAGGAUAUCUAAUAAUAUAUAUUAGAGAAGGCUCACAUGAGGAUCACCCAUGUUUUUUUUUUUUUUUUUUUUUU [Default title] (Eterna round: R96, puzzle: Exclusion NG 1) | 89.5 | 71.7 |  |  |  | 65
AUUAUAUAGAGAGGAUAUAGAAUAUUAUUUUAACAUGAGGAUCACCCAUGUAACCUUAUGUGUAGCUAGAAGGCUCAUUUAUUA [Title] (Eterna round: R96, puzzle: Exclusion NG 2) |  |  |  |  |  | 33.9
AUUAUAUAGUAAGGAUAUAGAUUAUUAUUUUAACAUGAGGAUCACCCAUGUAGCCUUAUGUAUAACUAGAAGGUACAUUUAUUA [Title] (Eterna round: R96, puzzle: Exclusion NG 2) |  |  |  |  |  | 35.7
AUUCCACAUGAGGAUCACCCAUGUCAGGAUAUGCAUAGUCCUGCCACAUAGGACUAGCGCAGAAGGGAUCGGGC [Eternabot (L2) Solution 20] (Eterna round: R97, puzzle: Exclusion 1) | 53.9 | 19 |  |  |  | 
AUUGAUAGCACAGGAUAUUGAGAUUUGAAUUGACAAGAAGGGUGUACAUGAGGAUCACCCAUGUAAUGGUUGAGUGGUUGAUUA [JR_ExcNG1_Sub003] (Eterna round: R96, puzzle: Exclusion NG 1) | 953 | 1140 |  |  |  | 829
AUUGAUGUUGAGGAUAUGCUUUUAUUUAUUAUAGCAGAAGGCGAUACAUGAGGAUCACCCAUGUUCAUGGCUUU [JR_E6_Sub097] (puzzle: Exclusion 6) |  |  | 11 |  |  | 
AUUUACAAGCUAAGAUCCUACAUGAGGAUCACCCAUGUGGUCCGGUGACGUGAGUCACCGGACUUAGCUCGUCUUGG [salish99_S_TOV1_R5_083] (Eterna round: R97, puzzle: Sensor, turn-off variant 1) | 54.4 | 61.4 |  |  |  | 
AUUUAGAGAGGAUAUAUAAAGUGAAACAUGAGGAUCACCCAUGUAAUUUUAUGGAUGUAAAUAGAAGGCUCAUUUA [Mat - Exclusion 5 - JL mod - D1] (puzzle: Exclusion 5) |  |  | 28.9 | 23.7 | 30.1 | 
AUUUAGCAAGUUAGAUCCUACAUGAGGAUCACCCAUGUUGUUCGUCUUAUUUGAAGACAACACAAAAGUGUUGUCUU [Omei Mir OFFv1 B3] (Eterna round: R97, puzzle: Sensor, turn-off variant 1) | 107 | 100 |  |  |  | 
AUUUUAACAUAGGAUAUCGAAUUUAUUAUUUAACGAGAAGGAUGAACAUGAGGAUCACCCAUGUGGUAUCAUGG [JL-ex6-3.02] (puzzle: Exclusion 6) |  |  | 204 |  |  | 
CAAACCAGAGGAUAUGCGCAUAGAUCAGACUUUGUUUCUUAACAUGAGGAUCACCCAUGUAGAAGGCUGUAAAA [Ex2 #73] (Eterna round: R97, puzzle: Exclusion 2) | 18.4 | 17.6 |  |  |  | 
CAAAUCUGAGGAUAUCGAUUUUUGUACAUGAGGAUCACCCAUGUCCUUUUUAUUAAAUCCCGAGAAGGCAGUGUAU [JR_E5_Sub096] (puzzle: Exclusion 5) |  |  | 24.3 |  |  | 
CAAAUGGUUUAAGGAUAUUACAUGAGGAUCACCCAUGUUAUCGGGAUGCUUCUCUUAAAAUACGGUAAGAAGGUAGACCUAAUC [Ceveso] (Eterna round: R96, puzzle: Exclusion NG 2) | 451 | 84.9 |  |  |  | 91
CAAUAGAAAGGAUAUACAGUAGGCGUUGUGCUCGAGCACUCACAUGAGGAUCACCCAUGUAGAAGGUUCAGUUA [EX2 C.18] (Eterna round: R97, puzzle: Exclusion 2) | 27.9 | 17.7 |  |  |  | 
CAAUUAAUUAAUUAAUAAUACAUGAGGAUCACCCAUGUAGAUCCUACAUACAAGCUUUGUAGCUCGUCUUAUAAUUA [Stov1/3-A3] (Eterna round: R97, puzzle: Sensor, turn-off variant 1) | 368 | 417 |  |  |  | 
CACACCUCCGUCAGGAUAUUAAGGCACCGCCGCCAUGAGAAGGGACAUGAGGAUCACCCAUGUUAAUCGUGGAA [Betibier] (Eterna round: R97, puzzle: Brourd's mod of Exclusion 4) | 226 | 20.5 |  |  |  | 
CACCAGCGAGGAUAUACACGUGGUCUCCACUCCCGGUGGUAACAUGAGGAUCACCCAUGUAGAAGGCGCAACAU [Gecedi] (puzzle: Exclusion 2) |  |  | 44.8 |  |  | 
